Source: patent US8470599B2, “Renal progenitor cells from embryonic stem cells” (The Regents of the University of Michigan, priority 2005, dated 2013)

B1: bmp4: growth factor (R & D Systems) added to retinoic acid and activin-a treated EBs (protein, UniProt P12644 293-408, looked up)
Bone morphogenetic protein 4: SPKHHSQRARKKNKNCRRHSLYVDFSDVGWNDWIVAPPGYQAFYCHGDCPFPLADHLNSTNHAIVQTLVNSVNSSIPKACCVPTELSAISMLYLDEYDKVVLKNYQEMVVEGCGCR
B2: bmp-7: growth factor (R & D Systems), third component of the nephrogenic cocktail (protein, UniProt P18075 293-431, looked up)
Bone morphogenetic protein 7: STGSKQRSQNRSKTPKNQEALRMANVAENSSSDQRQACKKHELYVSFRDLGWQDWIIAPEGYAAYYCEGECAFPLNSYMNATNHAIVQTLVHFINPETVPKPCCAPTQLNAISVLYFDDSSNVILKKYRNMVVRACGCH

Test system: EB derived cells in E12.5 cultured kidney rudiments
Assay: Injection of EB derived cells into E12.5 cultured kidney rudiments, lacZ / laminin / LTA staining
Format: cell-based, mouse
Settings: for contribution to developing tubules: compared to untreated EB cells, rudiments 4 or 5 days after injection
Method: Cryosections from kidney rudiments were stained for lacZ expression (A & C) and with anti-laminin antibodies (B & D). […] C & D) Many lacZ positive cells from control EBs were found in large and small aggregates (arrows) that remained mesenchymal in appearance and were not surrounded by laminin containing basement membranes. Some blue cells from control EBs were also found in tubules. Magnification bars are 100 microns.
E12.5 kidney rudiments were injected with RA7 treated EB cells (A-F) or control EB cells (G & H) and stained for lacZ, laminin, and LTA binding. […] Arrows point to glomerular tufts. B) Laminin staining of same tissue as in A. C & D) Co-localization of lacZ positive cells in developing proximal tubules (arrows) that also stain with LTA lectin (green) and are surrounded by laminin containing basement membranes (red). E & F) Another developing proximal tubule derived from RA7 treated EB cells (arrow) stained as above. G & H) Many control EB cells localize to interstitial and peripheral mesenchyme (arrows), though a small number of lacZ positive cells are also found in tubules.
This example describes cell culture and microinjection techniques utilized in experiments conducted during the course of the present invention. Mouse ES cells (R26) were grown in high glucose DMEM (GIBCO BRL), 10% fetal bovine serum (Atlanta Biologicals), 0.1 mM β-mercaptoethanol (Sigma), 4 mM glutamine (GIBCO BRL), 20 unit/ml PEN/STREP (GIBCO BRL), 0.1 mg/ml G418 (GIBCO BRL), and 10^3 unit/ml rLIF (Chemicon) on a 0.1% gelatin-coated tissue culture plate at 37° C. CO2 incubator for 2 days. The ES cells were transferred using 0.05% trypsin plus 0.53 mM EDTA (GIBCO BRL) to a 100-mm bacteriological petri dish (Falcon) to induce embryoid body (EB) formation. The EB suspension was cultured in the same medium without rLIF for 2 days and then transferred to 60-mm tissue culture plates coated with 0.1% gelatin. Each 60-mm tissue culture plate contained about 100 EBs. […]

Row | Molecule | ability of EB cells to contribute to tubules in vitro (addition of 100 ng/ml bmp4) | contribution to developing tubules
1 | B1 | completely inhibited | did not integrate
2 | B2 | – | enhanced
